Assay results from publication PMC4239081, “Differential Interaction Kinetics of a Bipolar Structure-Specific Endonuclease with DNA Flaps Revealed by Single-Molecule Imaging”.

Columns and labels:
[1] = molecular target: PCNA (Pyrococcus abyssi) (UniProt Q9UYX8); conditions: cited from earlier work
[2] = molecular target: T1, NucS (PabNucS) (Pyrococcus abyssi, UniProt Q9V2E8 1-251); experiment: single-molecule TIRF (koff/kon); 50 mM NaCl, 23 C, no divalent cations; koff 0.52 s-1; Imaging buffer B2: 20 mM HEPES, 150 mM NaCl (or 50 mM), 0.1 mg/ml casein Blocking Reagent; pH not given; 23 C without divalent cations, or 45 C with or without; conditions: protein: recombinant; tags: Alexa488 label; chain copies: 2; label: Alexa488 on F3D47; 3' flap of 20 nt at ss/dsDNA junction; three strands
T1 sequence: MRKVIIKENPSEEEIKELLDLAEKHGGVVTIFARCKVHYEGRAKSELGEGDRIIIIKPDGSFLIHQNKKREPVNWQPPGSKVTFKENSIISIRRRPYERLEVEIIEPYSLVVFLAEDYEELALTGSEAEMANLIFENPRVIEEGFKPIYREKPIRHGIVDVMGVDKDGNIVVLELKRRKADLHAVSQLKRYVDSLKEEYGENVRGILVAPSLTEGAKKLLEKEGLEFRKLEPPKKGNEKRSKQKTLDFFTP

[3] = molecular target: T1, NucS (PabNucS); experiment: single-molecule TIRF (koff/kon); 150 mM NaCl, 23 C, no divalent cations; koff 0.076 s-1; Imaging buffer B2: 20 mM HEPES, 150 mM NaCl (or 50 mM), 0.1 mg/ml casein Blocking Reagent; pH not given; 23 C without divalent cations, or 45 C with or without; conditions: protein: recombinant; tags: Alexa488 label; chain copies: 2; label: Alexa488 on F3D47; 3' flap of 20 nt at ss/dsDNA junction; three strands
[4] = molecular target: T1, NucS (PabNucS); experiment: single-molecule TIRF (koff/kon); 45 C, no Mn2+, no PCNA; koff 0.027 s-1; Imaging buffer B2: 20 mM HEPES, 150 mM NaCl (or 50 mM), 0.1 mg/ml casein Blocking Reagent; pH not given; 23 C without divalent cations, or 45 C with or without; conditions: protein: recombinant; tags: Alexa488 label; chain copies: 2; label: Alexa488 on F3D47; 3' flap of 20 nt; three strands
[5] = molecular target: T2, NucS (PabNucS);PCNA (PabPCNA) (Pyrococcus abyssi;Pyrococcus abyssi, UniProt Q9V2E8;Q9UYX8 1-251;1-249, |); experiment: single-molecule TIRF (koff/kon); 45 C, 50 nM PCNA, no Mn2+; koff 0.55 s-1; Imaging buffer B2: 20 mM HEPES, 150 mM NaCl (or 50 mM), 0.1 mg/ml casein Blocking Reagent; pH not given; 23 C without divalent cations, or 45 C with or without; conditions: protein: recombinant;recombinant; tags: Alexa488 label;; chain copies: 2;3; label: Alexa488 on F3D47; 3' flap of 20 nt; three strands
T2 sequence 1: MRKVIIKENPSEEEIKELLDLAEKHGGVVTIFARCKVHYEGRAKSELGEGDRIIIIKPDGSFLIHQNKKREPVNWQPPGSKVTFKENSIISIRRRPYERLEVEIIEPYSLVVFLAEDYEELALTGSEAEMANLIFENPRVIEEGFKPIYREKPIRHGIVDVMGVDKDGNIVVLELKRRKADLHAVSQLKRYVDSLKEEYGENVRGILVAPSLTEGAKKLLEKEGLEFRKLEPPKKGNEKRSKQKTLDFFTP
T2 sequence 2: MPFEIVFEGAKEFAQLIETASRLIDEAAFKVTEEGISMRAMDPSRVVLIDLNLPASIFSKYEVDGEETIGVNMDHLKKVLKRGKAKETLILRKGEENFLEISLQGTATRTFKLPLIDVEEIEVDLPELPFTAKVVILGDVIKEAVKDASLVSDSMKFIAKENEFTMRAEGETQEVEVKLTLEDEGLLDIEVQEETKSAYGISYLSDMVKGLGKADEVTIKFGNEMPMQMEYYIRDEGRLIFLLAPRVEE

[6] = molecular target: T2, NucS (PabNucS);PCNA (PabPCNA); experiment: single-molecule TIRF (koff/kon); 45 C, PCNA, 5 mM MnCl2 (cleaving); koff 0.85 s-1; Imaging buffer B2: 20 mM HEPES, 150 mM NaCl (or 50 mM), 0.1 mg/ml casein Blocking Reagent; pH not given; 23 C without divalent cations, or 45 C with or without; conditions: protein: recombinant;recombinant; tags: Alexa488 label;; chain copies: 2;3; label: Alexa488 on F3D47; 3' flap of 20 nt; three strands
[7] = molecular target: T1, NucS (PabNucS); experiment: single-molecule TIRF (koff/kon); 50 mM NaCl, 23 C, no divalent cations; koff 0.35 s-1; Imaging buffer B2: 20 mM HEPES, 150 mM NaCl (or 50 mM), 0.1 mg/ml casein Blocking Reagent; pH not given; 23 C without divalent cations, or 45 C with or without; conditions: protein: recombinant; tags: Alexa488 label; chain copies: 2; label: Alexa488 on F5D42; 5' flap of 20 nt at ss/dsDNA junction; three strands; D27 as printed has a mismatch to 49N
[8] = molecular target: T1, NucS (PabNucS); experiment: single-molecule TIRF (koff/kon); 150 mM NaCl, 23 C, no divalent cations; koff 0.026 s-1; Imaging buffer B2: 20 mM HEPES, 150 mM NaCl (or 50 mM), 0.1 mg/ml casein Blocking Reagent; pH not given; 23 C without divalent cations, or 45 C with or without; conditions: protein: recombinant; tags: Alexa488 label; chain copies: 2; label: Alexa488 on F5D42; 5' flap of 20 nt at ss/dsDNA junction; three strands; D27 as printed has a mismatch to 49N
[9] = molecular target: T2, NucS (PabNucS);PCNA (PabPCNA); experiment: single-molecule TIRF (koff/kon); 45 C, PCNA, no Mn2+; koff 0.90 s-1; Imaging buffer B2: 20 mM HEPES, 150 mM NaCl (or 50 mM), 0.1 mg/ml casein Blocking Reagent; pH not given; 23 C without divalent cations, or 45 C with or without; conditions: protein: recombinant;recombinant; tags: Alexa488 label;; chain copies: 2;3; label: Alexa488 on F5D42; 5' flap of 20 nt; three strands; D27 as printed has a mismatch to 49N
[10] = molecular target: T1, NucS (PabNucS); experiment: single-molecule TIRF (koff/kon); 45 C, no Mn2+, no PCNA; koff 0.50 s-1; Imaging buffer B2: 20 mM HEPES, 150 mM NaCl (or 50 mM), 0.1 mg/ml casein Blocking Reagent; pH not given; 23 C without divalent cations, or 45 C with or without; conditions: protein: recombinant; tags: Alexa488 label; chain copies: 2; label: Alexa488 on F5D42; 5' flap of 20 nt; three strands; D27 as printed has a mismatch to 49N
[11] = molecular target: T2, NucS (PabNucS);PCNA (PabPCNA); experiment: single-molecule TIRF (koff/kon); 45 C, PCNA, 5 mM MnCl2 (cleaving); koff 0.67 s-1; Imaging buffer B2: 20 mM HEPES, 150 mM NaCl (or 50 mM), 0.1 mg/ml casein Blocking Reagent; pH not given; 23 C without divalent cations, or 45 C with or without; conditions: protein: recombinant;recombinant; tags: Alexa488 label;; chain copies: 2;3; label: Alexa488 on F5D42; 5' flap of 20 nt; three strands; D27 as printed has a mismatch to 49N
[12] = molecular target: T1, NucS (PabNucS); experiment: single-molecule TIRF; 150 mM NaCl, 23 C; kon 0.04e6 M-1s-1, no significant binding; Imaging buffer B2: 20 mM HEPES, 150 mM NaCl (or 50 mM), 0.1 mg/ml casein Blocking Reagent; pH not given; 23 C without divalent cations, or 45 C with or without; conditions: protein: recombinant; tags: Alexa488 label; chain copies: 2; duplex; strands as printed not perfectly complementary

NucS (from UniProt Q9V2E8)
Kd [1]: 15 nM

B1: 3'-flap (49N/F3D47/D22) (structured_DNA)
DNA 1: AGCTACCATGCCTGCACGAATTAAGCAATTCGTAATCATGGTCATAGCT
DNA 2: AGCTATGACCATGATTACGAATTGCTTGGAATCCTGACGAACTGTAG
DNA 3: AATTCGTGCAGGCATGGTAGCT
modifications: biotin (two at each end of 49N)
Kd [2]: 17.7 ± 0.4 nM | Kd [3]: 7.8 ± 0.3 nM

B2: 3'-flap, one biotin (45 C) (structured_DNA)
DNA 1: AGCTACCATGCCTGCACGAATTAAGCAATTCGTAATCATGGTCATAGCT
DNA 2: AGCTATGACCATGATTACGAATTGCTTGGAATCCTGACGAACTGTAG
DNA 3: AATTCGTGCAGGCATGGTAGCT
modifications: one biotin at the extremity
Kd [4]: 12 ± 3 nM | Kd [5]: 161 ± 29 nM | Kd [6]: 250 ± 47 nM

B3: 5'-flap (49N/F5D42/D27) (structured_DNA)
DNA 1: AGCTACCATGCCTGCACGAATTAAGCAATTCGTAATCATGGTCATAGCT
DNA 2: GATGTCAAGCAGTCCTAAGGAATTCGTGCAGGCATGGTAGCT
DNA 3: AGCTATGATCATGATTACGAATTGCTT
modifications: biotin (two at each end of 49N)
Kd [7]: 9.4 ± 0.4 nM | Kd [8]: 2.6 ± 0.2 nM

B4: 5'-flap, one biotin (45 C) (structured_DNA)
DNA 1: AGCTACCATGCCTGCACGAATTAAGCAATTCGTAATCATGGTCATAGCT
DNA 2: GATGTCAAGCAGTCCTAAGGAATTCGTGCAGGCATGGTAGCT
DNA 3: AGCTATGATCATGATTACGAATTGCTT
modifications: one biotin at the extremity
Kd [9]: 195 ± 20 nM | Kd [10]: 625 ± 470 nM | Kd [11]: 145 ± 15 nM

B5: dsDNA (40N/40NC) (dsDNA)
DNA 1: CCTGCACGAATTAAGCAATTCGATATCATGGTCATAGCT
DNA 2: AGCTATGACCATGATTACGAATTGCTTAATTCGTGCAGG
modifications: biotin? (immobilized)
binding result [12]: no binding
